Test results reported in article PMC10926475, “A Detoxification Enzyme for Apis mellifera Newly Characterized by Recombinant Expression: 10-Formyl Tetrahydrofolate Dehydrogenase” (Frontiers in Insect Science, 2022).

Substrate: Nc1nc2c(c(=O)[nH]1)N[C@@H](CN(C=O)c1ccc(C(=O)N[C@@H](CCC(=O)O)C(=O)O)cc1)CN2
Assay: purified protein
Format: biochemical, Apis mellifera
Details: dehydrogenase reaction, 200 μM NADP+, 100 mM β-mercaptoethanol, Tris/HCl pH 7.6 (pH of highest Vmax), 30°C

B1: Amel_10-FTHFDH (10-formyl tetrahydrofolate dehydrogenase of A. mellifera) (Apis mellifera) (protein)
chain: AQLKVAIIGQSNFAAEVYKLLKLNGHQITGVFTIPDKGNREDPLAITAKIDNTPVFKIKSWRSKGVTLPEVLQLYKGIEVDLNVLPFCSQFIPMEVINHPRHRSICYHPSLLPRHRGASAITWTLIEGDDTAGFSIFWADDGLDTGPILLQRSCKVNSNDTLDSLYNNFLYPEGIKAMAEAVNLVAKGTAPMIPQTEEGATYDPMMNKKELQKIDWTKPAKQVHDFIRSLDSTPGAWTIIDGEEVRLFGSILWNDDQIPEHEIEVNVEDRLGIIHKDGLLIKAVDNHFVNVERMKVGTRTILASKFGQKSEDTIIEFTAEEQKMIESLKRTWEGILNMDVNEDTDFFACGAGSMDVIRLVEEVKDNLGVILQNIDVFMSPVFIQFVNKVVLTARGISTSKEIKYDAVEVQTNNMTLKFPRQLFINGEFVNGHGNPIDTINPHDETIICSVETGTVEDVDKAVKAAKKAFEEGEWSKISARERGVLLFKLADLMEEHKEELATIESIDSGAVYTLALKTHIGMSIETWRYFAGWCDKIQGSTIPITHARPNRNLTFTRKEPIGVCGLVTPWNYPLMMLSWKMAACLAAGNTVVMKPAQASPLTALKFAELTAKAGFPPGVVNIVPGNGTETGNAICEHLLIRKLGFTGSTQIGQSIMKSCANSNLKKVSLELGGKSPLVIFEDTDLQQAIKIAMSSVFFNKGENCIAAGRLFVEETIHDEFLQRIVEETKKISIGNPLDRSTAHGPQNHKAHLNKLLKFVERGVKEGAKLIYGGKRLDRPGWYFEPTIFTDVKDDMYIAKEESFGPIMVISKFSSKNIDDMIARANNTEYGLASGILTKDISKALRFAEKIEAGTVFINTYNKTDVAAPFGGFKMSGFGKDLGQEALNEYLKTKTITVEY
notes: complete ORF, N-terminal 6xHis tag kept (…... from primer), baculovirus / Hi5 insect cells, Ni-NTA, about 100 kDa
With B1 the Km was 9.596 µM.
